Positions count from the first letter of the chain named. Entries after “also recorded” stand apart in the source; their conditions may differ.
Tests used:
[1] = test system: CD4+CD25− Teff cell proliferation; assay: Suppression assay: suppression of Teff cell proliferation by transduced CD4+ cells expressing Foxp3 forms; format: cell-based, mouse; details: retrovirally transduced CD4+ cells expressing the Foxp3 form, co-cultured with CFSE-labeled CD4+CD25− T cells, 72 hr
Protocol: Suppression assays—CD4+CD25+ (T-reg) and CD4+CD25− (T-eff) T cell and APC are isolated with magnetic beads following the manufacturer's instructions (Miltenyi). In some cases, 5×10^4 CD4+CD25− T cells were labeled with CFSE and stimulated with CD3 mAb (1 μg/ml) in the presence of irradiated syngeneic APC and varying ratios of activated CD4+ cells that had been transduced with different Foxp3 constructs. […] After 72 hours culture, cells were harvested and CD4+CD25− T cell proliferation was quantified by flow cytometry (Cyan) based on carboxylfluorescein diacetate succininyl ester (CFSE) profile of dividing effector T cells at 72 hr. Absolute numbers of effector T cells were determined by adding equal numbers of Dynabeads to each sample, and during FACS analysis gates were drawn on Dynabeads and collection time was based on set number of bead events for each sample. […]
WT Foxp3 and engineered Foxp3 mutants (N-terminal cleaved, C-terminal cleaved and N -plus C-terminal-cleaved (double-cleaved)) were retrovirally expressed in CD4+ cells and the ability of the transduced cells to suppress Teff cell proliferation was measured.

[2] = test system: RAG−/− (C57BL/6) mice; assay: Adoptive transfer model of IBD; format: in vivo, mouse; details: for weight loss: 1×10^5 transduced Thy1.1+CD4+ cells plus 1×10^6 CD4+CD25− Teff cells i.p., weights monitored for 45 days; for histology of duodenal sections: duodenal samples collected at day 45, H&E
Text: Adoptive transfer model of IBD—CD4+CD25− T cells were isolated from mesenteric lymph nodes using magnetic beads (Miltenyi) to >95% purity (by flow cytometry). CD4+CD25− T cells (1×10^6 cells) were co-injected i.p. into RAG1−/− (C57BL/6) mice along with Thy1.1+CD4+CD25− cells transduced with WT or mutated Foxp3 ([…]). Mice were monitored biweekly for clinical evidence of disease, including weight loss and stool consistency. RAG1−/− mice on the C57BL/6 background were purchased from Taconic Laboratory. Mice were housed in specific pathogen-free conditions, and used for studies approved by the institutional animal care and use committee of the Children's Hospital of Philadelphia.
Pathology—Gut samples were paraffin embedded and stained by H&E, or snap-frozen and stained by immunoperoxidase using mAbs to Foxp3 and T cell subsets (73).
To test the effects of the different Foxp3 mutants in vivo, RAG−/− (C57BL/6) mice were injected with 1×10^5 transduced Thy1.1+CD4+ cells expressing either WT-Foxp3 or a mutant Foxp3 (RKKR• (SEQ ID NO: 179), QNKR• (SEQ ID NO: 180), QNKR-- (SEQ ID NO: 180)) or empty vector (control), plus 1×10^6 CD4+CD25− Teff cells. Additional mice received CD4+CD25− Teff cells alone. The weights of the animals in each group were monitored weekly for 45 days.

B1: C-cleaved PNNW mutant: short 417-aa Foxp3 in which the last four amino acids RKKR are replaced with PNNW (protein, UniProt Q99JB6 1-417, looked up, variant R414P K415N K416N R417W)
chain: MPNPRPAKPMAPSLALGPSPGVLPSWKTAPKGSELLGTRGSGGPFQGRDLRSGAHTSSSLNPLPPSQLQLPTVPLVMVAPSGARLGPSPHLQALLQDRPHFMHQLSTVDAHAQTPVLQVRPLDNPAMISLPPPSAATGVFSLKARPGLPPGINVASLEWVSREPALLCTFPRSGTPRKDSNLLAAPQGSYPLLANGVCKWPGCEKVFEEPEEFLKHCQADHLLDEKGKAQCLLQREVVQSLEQQLELEKEKLGAMQAHLAGKMALAKAPSVASMDKSSCCIVATSTQGSVLPAWSAPREAPDGGLFAVRRHLWGSHGNSSFPEFFHNMDYFKYHNMRPPFTYATLIRWAILEAPERQRTLNEIYHWFTRMFAYFRNHPATWKNAIRHNLSLHKCFVRVESEKGAVWTVDEFEFPNNW
suppression of Teff cell proliferation [1]: loss in the suppression ability

B2: QNKR•: short 417-aa Foxp3 mutant without C-terminal tail, terminating with QNKR (protein, UniProt Q99JB6 1-417, looked up, variant R414Q K415N)
chain: B1 chain with P414Q, N416K, W417R
weight loss [2]: negligible weight loss; also recorded: significantly more effective in controlling weight loss | histology of duodenal sections [2]: minor mononuclear cell infiltration and edema

B3: double-cleaved Foxp3: engineered Foxp3 lacking N-terminal 51-aa and C-terminal tail (366-aa) (protein)
chain: SGAHTSSSLNPLPPSQLQLPTVPLVMVAPSGARLGPSPHLQALLQDRPHFMHQLSTVDAHAQTPVLQVRPLDNPAMISLPPPSAATGVFSLKARPGLPPGINVASLEWVSREPALLCTFPRSGTPRKDSNLLAAPQGSYPLLANGVCKWPGCEKVFEEPEEFLKHCQADHLLDEKGKAQCLLQREVVQSLEQQLELEKEKLGAMQAHLAGKMALAKAPSVASMDKSSCCIVATSTQGSVLPAWSAPREAPDGGLFAVRRHLWGSHGNSSFPEFFHNMDYFKYHNMRPPFTYATLIRWAILEAPERQRTLNEIYHWFTRMFAYFRNHPATWKNAIRHNLSLHKCFVRVESEKGAVWTVDEFEFRKKR
suppression of Teff cell proliferation [1]: suppressed Teff cell proliferation stronger than both WTFoxp3 and N-terminal-cleaved Foxp3

B4: WT-Foxp3: wild-type mouse Foxp3, 429-aa, retrovirally expressed in CD4+ T cells (protein)
chain: MPNPRPAKPMAPSLALGPSPGVLPSWKTAPKGSELLGTRGSGGPFQGRDLRSGAHTSSSLNPLPPSQLQLPTVPLVMVAPSGARLGPSPHLQALLQDRPHFMHQLSTVDAHAQTPVLQVRPLDNPAMISLPPPSAATGVFSLKARPGLPPGINVASLEWVSREPALLCTFPRSGTPRKDSNLLAAPQGSYPLLANGVCKWPGCEKVFEEPEEFLKHCQADHLLDEKGKAQCLLQREVVQSLEQQLELEKEKLGAMQAHLAGKMALAKAPSVASMDKSSCCIVATSTQGSVLPAWSAPREAPDGGLFAVRRHLWGSHGNSSFPEFFHNMDYFKYHNMRPPFTYATLIRWAILEAPERQRTLNEIYHWFTRMFAYFRNHPATWKNAIRHNLSLHKCFVRVESEKGAVWTVDEFEFRKKRSQRPNKCSNPCP
survival ([2]; 1×10^5 transduced CD4+ cells plus 1×10^6 CD4+CD25− Teff cells, 45 days): survived | weight loss [2]: minor weight loss; also recorded: benefit | histology of duodenal sections [2]: mild cell mononuclear cell infiltration and edema within villi; also recorded: mild mononuclear cell recruitment and villous edema

B5: QNKR--: 429-aa Foxp3 with RKKR replaced by QNKR, intact C-terminal tail resistant to proteolytic cleavage (protein, UniProt Q99JB6 1-429, looked up, variant R414Q K415N)
Forkhead box protein P3: B4 chain with R414Q, K415N
weight loss [2]: did significantly worse | histology of duodenal sections [2]: marked mononuclear cell infiltration of villous processes; also recorded: extensive mononuclear cell recruitment

— patent publication US20100310635A1, “Compositions and Methods for Regulating T-Cell Activity” (priority 2007, published 2010)
